From IntAct's records for PubMed 17347647

B1: Rho GTPase-activating protein 21 (Homo sapiens), Q5T5U3 (parent)
chain: MMATRRTGLSEGDGDKLKACEVSKNKDGKEQSETVSLSEDETFSWPGPKTVTLKRTSQGFGFTLRHFIVYPPESAIQFSYKDEENGNRGGKQRNRLEPMDTIFVKQVKEGGPAFEAGLCTGDRIIKVNGESVIGKTYSQVIALIQNSDTTLELSVMPKDEDILQVLQFTKDVTALAYSQDAYLKGNEAYSGNARNIPEPPPICYPWLPSAPSAMAQPVEISPPDSSLSKQQTSTPVLTQPGRAYRMEIQVPPSPTDVAKSNTAVCVCNESVRTVIVPSEKVVDLLSNRNNHTGPSHRTEEVRYGVSEQTSLKTVSRTTSPPLSIPTTHLIHQPAGSRSLEPSGILLKSGNYSGHSDGISSSRSQAVEAPSVSVNHYSPNSHQHIDWKNYKTYKEYIDNRRLHIGCRTIQERLDSLRAASQSTTDYNQVVPNRTTLQGRRRSTSHDRVPQSVQIRQRSVSQERLEDSVLMKYCPRSASQGALTSPSVSFSNHRTRSWDYIEGQDETLENVNSGTPIPDSNGEKKQTYKWSGFTEQDDRRGICERPRQQEIHKSFRGSNFTVAPSVVNSDNRRMSGRGVGSVSQFKKIPPDLKTLQSNRNFQTTCGMSLPRGISQDRSPLVKVRSNSLKAPSTHVTKPSFSQKSFVSIKDQRPVNHLHQNSLLNQQTWVRTDSAPDQQVETGKSPSLSGASAKPAPQSSENAGTSDLELPVSQRNQDLSLQEAETEQSDTLDNKEAVILREKPPSGRQTPQPLRHQSYILAVNDQETGSDTTCWLPNDARREVHIKRMEERKASSTSPPGDSLASIPFIDEPTSPSIDHDIAHIPASAVISASTSQVPSIATVPPCLTTSAPLIRRQLSHDHESVGPPSLDAQPNSKTERSKSYDEGLDDYREDAKLSFKHVSSLKGIKIADSQKSSEDSGSRKDSSSEVFSDAAKEGWLHFRPLVTDKGKRVGGSIRPWKQMYVVLRGHSLYLYKDKREQTTPSEEEQPISVNACLIDISYSETKRKNVFRLTTSDCECLFQAEDRDDMLAWIKTIQESSNLNEEDTGVTNRDLISRRIKEYNNLMSKAEQLPKTPRQSLSIRQTLLGAKSEPKTQSPHSPKEESERKLLSKDDTSPPKDKGTWRKGIPSIMRKTFEKKPTATGTFGVRLDDCPPAHTNRYIPLIVDICCKLVEERGLEYTGIYRVPGNNAAISSMQEELNKGMADIDIQDDKWRDLNVISSLLKSFFRKLPEPLFTNDKYADFIEANRKEDPLDRLKTLKRLIHDLPEHHYETLKFLSAHLKTVAENSEKNKMEPRNLAIVFGPTLVRTSEDNMTHMVTHMPDQYKIVETLIQHHDWFFTEEGAEEPLTTVQEESTVDSQPVPNIDHLLTNIGRTGVSPGDVSDSATSDSTKSKGSWGSGKDQYSRELLVSSIFAAASRKRKKPKEKAQPSSSEDELDNVFFKKENVEQCHNDTKEESKKESETLGRKQKIIIAKENSTRKDPSTTKDEKISLGKESTPSEEPSPPHNSKHNKSPTLSCRFAILKESPRSLLAQKSSHLEETGSDSGTLLSTSSQASLARFSMKKSTSPETKHSEFLANVSTITSDYSTTSSATYLTSLDSSRLSPEVQSVAESKGDEADDERSELISEGRPVETDSESEFPVFPTALTSERLFRGKLQEVTKSSRRNSEGSELSCTEGSLTSSLDSRRQLFSSHKLIECDTLSRKKSARFKSDSGSLGDAKNEKEAPSLTKVFDVMKKGKSTGSLLTPTRGESEKQEPTWKTKIADRLKLRPRAPADDMFGVGNHKVNAETAKRKSIRRRHTLGGHRDATEISVLNFWKVHEQSGERESELSAVNRLKPKCSAQDLSISDWLARERLRTSTSDLSRGEIGDPQTENPSTREIATTDTPLSLHCNTGSSSSTLASTNRPLLSIPPQSPDQINGESFQNVSKNASSAANAQPHKLSETPGSKAEFHPCL

Variants of: B1
Conditions: with arf1_mouse Arf1, P84078
arf1_mouse Arf1, P84078, sequence (P84078 whole entry): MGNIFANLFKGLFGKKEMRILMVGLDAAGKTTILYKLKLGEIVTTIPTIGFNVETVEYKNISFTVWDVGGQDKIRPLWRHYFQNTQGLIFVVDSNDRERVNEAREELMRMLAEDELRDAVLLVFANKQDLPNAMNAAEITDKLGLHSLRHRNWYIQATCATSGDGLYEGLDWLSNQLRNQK
For Y1000A, the “effect of a mutation on the interaction” value was “decreasing interaction”.

Variants of: B1
Conditions: with arf1_mouse Arf1, P84078
Remark: another data set of the same source
For I1054A, the “effect of a mutation on the interaction” value was “decreasing interaction”.
